Results: article PMC12702981, “Population pharmacokinetics of efpeglenatide in individuals with obesity and with type 2 diabetes” (Frontiers in Pharmacology, 2025)
Marks after values point to notes of the source that are not given here.

How the values were obtained:
[1] = human, in vivo
Protocol: The population PK analysis was performed based on pooled data from one phase 1 and five phase 2 studies of efpeglenatide. […] Dosing regimens ranged from once weekly (QW) to every other week (Q2W) and once monthly (QM) subcutaneous administration.
The pooled dataset comprised six clinical studies (five studies in patients with T2DM and one study in obesity). A total of 3,596 plasma efpeglenatide concentration measurement were collected from 498 subjects across six clinical studies at prespecified time points.
All samples were analyzed at certified laboratories using validated analytical method. Serum concentrations of efpeglenatide were quantified using a validated Enzyme-Linked Immunosorbent Assay (ELISA) method.
For the PK analysis, 3,316 post-dose plasma concentrations above the lower limit of quantification (LLOQ) were used in the model estimation. All pre-dose concentrations before the first administration were excluded from the dataset. Post-dose samples below the limit of quantification (BLQ) were treated as missing (i.e., not included in the analysis). In total, 117 pre-dose samples (3.25%) and 153 post-dose samples (4.0%) were BLQ.
The base PK model evaluation was begun with a one-compartment disposition model with first-order elimination, with additional refinement to better characterize the absorption phase. […] The first one of the two divided doses was described as the first order absorption after bolus doses into depot compartment, capturing the first peak during the absorption phase. The second part of the dose was introduced to describe the second peak with time delay during absorption phase, which was described using a transit compartment model ([Savic et al., 2007]). […] After the absorption model was established, various compartment models were evaluated.
The transit compartment model describes the delay in absorption as the sequential passage of the drug through a chain of transit compartments, each connected by a first-order transit rate constant (Ktr). The number of transit compartments (n) and the mean transit time (MTT) were estimated from the data, with Ktr calculated as (n+1)/MTT. Drug exiting the final transit compartment entered the absorption compartment and was transferred to the central compartment via first-order absorption, as described by Equations 1–3.
The amount of drug administered subcutaneously (Asc) in the depot, central compartment (Ac) and peripheral compartment (Ap) were described using the following differential Equations 4–6: dAsc/dt=Dose·BIOA1+Dose·BIOA2·Ktr·t^n·e^−Ktr·t/2π·n^n+0.5·e^−n−ka·Asc (4) dAc/dt=ka·Asc−Ac/Vc·CL−Ac/Vc·Q+Ap/Vp·Q (5) dAp/dt=Ac/Vc·Q−Ap/Vp·Q (6)
To confine the estimated fraction values to the range between 0 and 1 and to allow implementation of interindividual variability, a logit transformation was applied. BIOA1 and BIOA2 represent the fractions of the administered dose entering the depot compartment via the bolus administration route and the delayed absorption route, respectively. The transformation was defined as shown in Equation 7 ([Adedokun et al., 2020]): BIOA1=e^BIOF/1+e^BIOF,BIOA2=1/1+e^BIOF (7) where BIOF is an unbounded parameter ( −∞∼∞ ) representing the logit-transformed value of BIOA1, and BIOA2 = 1-BIOA1
The population PK modeling analysis was performed using NONMEM version 7.5 (ICON Development Solutions, Hanover, MD, United States). The first-order conditional estimation method with interaction (FOCEI) was used to approximate the marginal likelihood and facilitate estimation of population model parameters.

[2] = patients with T2DM; ref Gerstein et al., 2021; cited from earlier work
[3] = ref Yoon et al., 2020; cited from earlier work
Source text: Gastrointestinal (GI) adverse events are the most frequent class-related tolerability issues with GLP-1 receptor agonists, and stepwise dose-escalation regimens are commonly used to mitigate these events ([U.S. Food and Drug Administration, 2014]; [Davies et al., 2022]). […] Efpeglenatide has shown an adverse event profile consistent with this drug class ([Yoon et al., 2020]; [Gerstein et al., 2021]). The model-derived effective half- ...

[4] = ref Geiser et al., 2016; cited from earlier work
Source text: This finding is aligned with the pharmacokinetic properties of Fc-fusion proteins, in which neonatal Fc receptor (FcRn)-mediated recycling limits proteolytic catabolism and prolongs systemic residence ([Richter and Jacobsen, 2014]).

Substance	BIOA1, dose fraction absorbed via the first-order pathway [1]	BIOA2, dose fraction absorbed via the transit-compartment pathway [1]	BIOF, logit parameter expressing the fraction of dose absorbed via the first-order and transit pathway [1]	CL/F in T2DM, clearance for patients with T2DM [1]	CL/F in obesity, clearance for obesity [1]	Covariate effect (θ) of body weight on CL/F [1]	Covariate effect (θ) of body weight on ka [1]	Expected time to steady state [1]	Higher clearance (CL/F) in T2DM than in obesity [1] [%]	MTT, mean transit time [1]	Model-derived effective half-life [1] [days]	N, number of transit compartments [1]	VSS [1]	Q/F, inter-compartment clearance ([1]; sc)	VC/F, volume of the central compartment ([1]; sc)	VP/F, volume of the peripheral compartment ([1]; sc)	ka, absorption rate constant ([1]; sc)	Weight loss [2]	Clinically reported half-life [3] [days]	CL, clearance [4] [L/h]
efpeglenatide	0.248 ^a	0.752 ^b	−1.11 [27.59]	0.044 [1.50] L/h	0.032 [1.79] L/h	0.964 [6.75]	−0.927 [14.24]	≈ 4 weeks	38	2.680 [13.47] hour	6 to 7	5.520 [22.28]	≈ 6.8 L	0.073 [11.14] L/h	2.80 [7.39] L	3.96 [6.57] L	0.006 [4.33] 1/h	6%–7%	5.6 to 7.5	
dulaglutide: another Fc-fusion GLP-1 receptor agonist																				0.059
